T1: Srs2^CΔ276 (S. cerevisiae, UniProt P12954 1-898)
T1 sequence (looked up): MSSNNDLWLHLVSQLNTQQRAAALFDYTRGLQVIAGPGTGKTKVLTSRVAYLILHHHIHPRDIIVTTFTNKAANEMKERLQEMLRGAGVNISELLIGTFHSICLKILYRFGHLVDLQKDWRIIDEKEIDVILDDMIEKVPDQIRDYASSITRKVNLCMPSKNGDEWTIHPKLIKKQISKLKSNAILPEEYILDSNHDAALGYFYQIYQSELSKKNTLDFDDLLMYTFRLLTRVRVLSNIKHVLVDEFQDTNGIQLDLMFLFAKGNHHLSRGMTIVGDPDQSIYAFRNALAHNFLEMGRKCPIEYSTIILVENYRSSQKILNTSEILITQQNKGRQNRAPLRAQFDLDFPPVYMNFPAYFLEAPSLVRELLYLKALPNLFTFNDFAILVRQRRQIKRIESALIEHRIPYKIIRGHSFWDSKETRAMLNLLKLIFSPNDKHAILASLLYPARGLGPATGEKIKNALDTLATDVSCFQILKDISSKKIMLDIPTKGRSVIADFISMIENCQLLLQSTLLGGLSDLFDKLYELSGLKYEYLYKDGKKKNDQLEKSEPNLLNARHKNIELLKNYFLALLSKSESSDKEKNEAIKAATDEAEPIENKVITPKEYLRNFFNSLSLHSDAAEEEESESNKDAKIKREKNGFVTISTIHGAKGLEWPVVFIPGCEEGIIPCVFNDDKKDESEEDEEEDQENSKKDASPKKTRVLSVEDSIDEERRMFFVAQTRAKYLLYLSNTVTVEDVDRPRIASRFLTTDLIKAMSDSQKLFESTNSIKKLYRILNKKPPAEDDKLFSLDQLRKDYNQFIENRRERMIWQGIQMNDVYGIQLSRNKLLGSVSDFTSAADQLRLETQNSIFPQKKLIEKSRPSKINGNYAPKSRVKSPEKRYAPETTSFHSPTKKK

B1: Rad51 (natural protein, S. cerevisiae (yeast Rad51, yRad51), UniProt P25454 1-400, looked up)
chain: MSQVQEQHISESQLQYGNGSLMSTVPADLSQSVVDGNGNGSSEDIEATNGSGDGGGLQEQAEAQGEMEDEAYDEAALGSFVPIEKLQVNGITMADVKKLRESGLHTAEAVAYAPRKDLLEIKGISEAKADKLLNEAARLVPMGFVTAADFHMRRSELICLTTGSKNLDTLLGGGVETGSITELFGEFRTGKSQLCHTLAVTCQIPLDIGGGEGKCLYIDTEGTFRPVRLVSIAQRFGLDPDDALNNVAYARAYNADHQLRLLDAAAQMMSESRFSLIVVDSVMALYRTDFSGRGELSARQMHLAKFMRALQRLADQFGVAVVVTNQVVAQVDGGMAFNPDPKKPIGGNIMAHSSTTRLGFKKGKGCQRLCKVVDSPCLPEAECVFAIYEDGVGDPREEDE
B2: 5'-Cy3-dT79 (ssDNA)
DNA: TTTTTTTTTTTTTTTTTTTTTTTTTTTTTTTTTTTTTTTTTTTTTTTTTTTTTTTTTTTTTTTTTTTTTTTTTTTTTTT

Assays:
Srs2^CΔ276 = target: T1, Srs2^CΔ276; assay: SPR
Rad51-E221D = Rad51-E221D (Saccharomyces cerevisiae, UniProt P25454 1-400, E221D); assay: stopped-flow Cy3 fluorescence
Rad51 (yRad51 wild type) = Rad51 (yRad51 wild type) (Saccharomyces cerevisiae, UniProt P25454 1-400); assay: stopped-flow Cy3 fluorescence

| Binder | Kd (Srs2^CΔ276) [µM] | apparent K (half saturation) (Rad51-E221D) [nM as printed] | apparent K (half saturation) (Rad51 (yRad51 wild type)) [nM as printed] |
| --- | --- | --- | --- |
| B1 | 15.2 ± 5 | – | – |
| B2 | – | 2.17 ± 0.6 | 1.55 ± 0.3 |

From paper PMC2711036 (Molecular cell, 2009)
